This note sets out measurements from patent US20120208238A1.

Assay [1] concerns the target soluble human FcγRIIa^R131-GST (human) (UniProt P12318). Description: SPR; ratio of the Kd for FcγRIIb-GST over that for FcγRIIa-GST. Background: SPR reads the build-up and loss of mass on a sensor chip optically.
Assay [2] has the same target. Description: flow cytometry of E. coli spheroplasts displaying the full length IgG, 20 nM FcγRIIa-GST-Alexa488 in the presence of 100 nM unlabelled FcγRIIb-GST.
Assay [3] has as its target soluble human FcγRIIb-GST (human) (UniProt P31994). The assay is described as follows: SPR (BIAcore 3000), antibody on CM5 chip, soluble dimeric receptor-GST injected, bivalent analyte model.
Assay [4] concerns the target soluble human FcγRIIa^R131-GST (human) (UniProt P12318). The assay is described as above.

Chain of soluble human FcγRIIa^R131-GST (human) (P12318 34-217 H167R): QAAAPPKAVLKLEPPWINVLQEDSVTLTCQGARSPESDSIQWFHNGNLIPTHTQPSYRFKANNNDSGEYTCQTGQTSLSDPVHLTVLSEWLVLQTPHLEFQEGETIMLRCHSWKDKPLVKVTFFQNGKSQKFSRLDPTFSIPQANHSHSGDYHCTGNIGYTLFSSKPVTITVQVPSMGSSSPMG
Chain of soluble human FcγRIIb-GST (human) (P31994 43-217): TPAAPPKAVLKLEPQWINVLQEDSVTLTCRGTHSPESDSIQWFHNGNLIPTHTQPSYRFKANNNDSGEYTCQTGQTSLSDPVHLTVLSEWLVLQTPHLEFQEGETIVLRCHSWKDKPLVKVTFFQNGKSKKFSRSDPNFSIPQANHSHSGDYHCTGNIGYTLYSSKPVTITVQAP

B1: aglycosylated Fc1001 trastuzumab (antibody, part only; not given: Fab (trastuzumab), IgG1, not shown: another chain or arm of the molecule)
Fc: DKTHTCPPCPAPELLGGPSVFLFPPKPKDTLMISRTPEVTCVVVDVSPEDPEVKFNWYVDGVEVHNAKTKPREKQYNGAYRVVSVLTVLHQDWLNGKEYKCKVSNKALPAPIEKTISKAKGQPREPQVYTLPPSRDELTKSQVSLTCLVKGFYPSDIAVEWVSNGQPENNYKTTPPVLDSDGSFFLYSKLTVDKSRWQQGNVFSCSVLHEALHNHYTQKSLSLSPGK
modifications: aglycosylated (T299A)
The koff is a measure of how fast the partners let go of each other. For orientation: kon means a measure of how fast the partners come together. High values mean fast association, low ones slow association. As to B1, the KD2b/KD2a in assay [1] is 9.6. In assay [2], the FACS mean value stood at 409 and the M (mean fluorescence intensity) is 413. In assay [3], this molecule came in with a Kd of 975 nM, an off-rate (koff) of 0.0194 s⁻¹ and a kon of 19900 M⁻¹ s⁻¹. In assay [4], this molecule came in with a Kd of 102 nM, a koff of 0.00352 s⁻¹ and an on-rate constant (kon) of 34600 M⁻¹ s⁻¹.

B2: aglycosylated Fc1003 trastuzumab (antibody, part only; not given: Fab (trastuzumab), IgG1, not shown: another chain or arm of the molecule)
Fc: DKTHTCPPCPAPELLGGPSVFLFPPKPKDTLMISRTPEVTCVVVDVSHEDPEVKFNWYVDGVEVHNAKTKPREEQYNGAYRVVSVLTVLHQDWLNGKEYKCKVSNKALPAPIEKTISKAKGQPREPQVYTLPPSRDELTKNQVSLTCLVKGFYPSDIAVEWVSNGQPENNYETTPPMLDSDGSFFLYSKLTVDKSRWQQGNVFSCSVLHEALHNHYTQKSLSLSPGK
modifications: aglycosylated (T299A)
With B2, the KD2b/KD2a in assay [1] was found to be 3.56. Moreover, the FACS mean value in assay [2] is 277. In assay [3], this molecule yielded a Kd of 1380 nM, a koff of 0.00866 s⁻¹ and a kon of 6260 M⁻¹ s⁻¹. Moreover, in assay [4], the Kd is 389 nM, the koff was 0.0079 s⁻¹ and the kon was 20300 M⁻¹ s⁻¹.
